This is an account of results in publication PMC10656236 (The Journal of Biological Chemistry, 2023).

The target of this assay is cohesin-NIPBL^c subcomplex containing SMC1, SMC3, RAD21 and NIPBL^c (no SA1) (human, UniProt Q14683;Q9UQE7;O60216;Q6KC79). Briefly: reconstitution by mixing, AFM imaging in air.
Sequence of cohesin-NIPBL^c subcomplex containing SMC1, SMC3, RAD21 and NIPBL^c (no SA1) (Q14683 whole entry, chain 1 of 4): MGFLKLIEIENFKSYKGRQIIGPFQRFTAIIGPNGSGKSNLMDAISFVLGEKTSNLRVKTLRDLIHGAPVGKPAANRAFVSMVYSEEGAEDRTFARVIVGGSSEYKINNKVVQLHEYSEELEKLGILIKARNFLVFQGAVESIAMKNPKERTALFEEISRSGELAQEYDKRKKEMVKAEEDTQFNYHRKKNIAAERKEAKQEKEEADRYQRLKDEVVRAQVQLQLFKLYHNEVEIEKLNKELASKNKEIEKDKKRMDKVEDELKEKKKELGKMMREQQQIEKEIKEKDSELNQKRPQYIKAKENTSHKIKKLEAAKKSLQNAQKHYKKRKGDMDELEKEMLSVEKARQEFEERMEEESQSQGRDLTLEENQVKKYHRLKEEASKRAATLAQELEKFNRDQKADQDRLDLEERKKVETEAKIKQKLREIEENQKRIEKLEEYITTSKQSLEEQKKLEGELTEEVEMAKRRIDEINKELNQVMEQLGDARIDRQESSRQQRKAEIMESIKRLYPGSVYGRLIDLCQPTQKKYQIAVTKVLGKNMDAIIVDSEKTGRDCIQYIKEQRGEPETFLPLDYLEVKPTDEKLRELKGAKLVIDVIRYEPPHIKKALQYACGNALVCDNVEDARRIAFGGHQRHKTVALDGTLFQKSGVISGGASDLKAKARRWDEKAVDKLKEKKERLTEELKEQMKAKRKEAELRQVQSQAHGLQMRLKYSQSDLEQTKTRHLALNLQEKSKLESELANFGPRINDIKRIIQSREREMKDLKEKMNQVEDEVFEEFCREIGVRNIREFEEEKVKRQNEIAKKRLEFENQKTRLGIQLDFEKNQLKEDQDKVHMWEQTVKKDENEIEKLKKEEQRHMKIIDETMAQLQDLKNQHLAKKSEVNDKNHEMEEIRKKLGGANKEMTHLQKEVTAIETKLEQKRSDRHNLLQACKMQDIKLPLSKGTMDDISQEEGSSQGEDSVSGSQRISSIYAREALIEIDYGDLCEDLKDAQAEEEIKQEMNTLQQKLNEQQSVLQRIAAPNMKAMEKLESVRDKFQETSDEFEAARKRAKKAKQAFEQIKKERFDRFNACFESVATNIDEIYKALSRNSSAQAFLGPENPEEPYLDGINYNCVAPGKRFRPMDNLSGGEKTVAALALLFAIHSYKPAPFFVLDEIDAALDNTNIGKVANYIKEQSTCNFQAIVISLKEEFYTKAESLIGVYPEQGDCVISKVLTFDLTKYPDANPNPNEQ
Sequence of cohesin-NIPBL^c subcomplex containing SMC1, SMC3, RAD21 and NIPBL^c (no SA1) (Q9UQE7 whole entry, chain 2 of 4): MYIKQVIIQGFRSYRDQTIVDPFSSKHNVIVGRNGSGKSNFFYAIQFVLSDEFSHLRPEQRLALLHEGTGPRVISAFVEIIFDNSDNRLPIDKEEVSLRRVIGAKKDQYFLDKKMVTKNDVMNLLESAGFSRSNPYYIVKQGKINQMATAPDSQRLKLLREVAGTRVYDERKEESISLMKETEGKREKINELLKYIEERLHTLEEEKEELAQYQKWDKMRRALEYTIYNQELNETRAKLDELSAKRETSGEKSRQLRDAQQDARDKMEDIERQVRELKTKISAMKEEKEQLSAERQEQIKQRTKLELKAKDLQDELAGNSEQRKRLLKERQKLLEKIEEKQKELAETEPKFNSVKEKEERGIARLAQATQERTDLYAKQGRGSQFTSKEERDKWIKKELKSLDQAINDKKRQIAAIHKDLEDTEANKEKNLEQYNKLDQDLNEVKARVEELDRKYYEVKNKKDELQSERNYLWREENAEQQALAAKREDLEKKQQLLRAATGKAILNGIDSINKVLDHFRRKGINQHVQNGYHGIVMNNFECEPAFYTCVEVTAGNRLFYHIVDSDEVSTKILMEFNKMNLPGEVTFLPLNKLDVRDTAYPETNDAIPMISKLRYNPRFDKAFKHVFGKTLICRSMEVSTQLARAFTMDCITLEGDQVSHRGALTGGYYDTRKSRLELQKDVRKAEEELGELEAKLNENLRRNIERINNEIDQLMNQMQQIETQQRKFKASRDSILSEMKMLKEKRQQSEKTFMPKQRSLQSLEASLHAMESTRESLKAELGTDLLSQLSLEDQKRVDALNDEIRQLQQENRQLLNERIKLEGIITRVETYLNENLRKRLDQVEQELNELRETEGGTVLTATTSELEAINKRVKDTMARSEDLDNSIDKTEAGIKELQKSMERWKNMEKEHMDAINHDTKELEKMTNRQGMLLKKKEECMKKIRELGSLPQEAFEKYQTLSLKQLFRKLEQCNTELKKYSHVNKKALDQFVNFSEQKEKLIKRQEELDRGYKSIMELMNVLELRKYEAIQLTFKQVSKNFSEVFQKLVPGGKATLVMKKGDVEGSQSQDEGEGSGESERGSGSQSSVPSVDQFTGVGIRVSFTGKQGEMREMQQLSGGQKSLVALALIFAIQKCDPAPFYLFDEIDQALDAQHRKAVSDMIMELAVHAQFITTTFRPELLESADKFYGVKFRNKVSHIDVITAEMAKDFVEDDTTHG
Sequence of cohesin-NIPBL^c subcomplex containing SMC1, SMC3, RAD21 and NIPBL^c (no SA1) (O60216 whole entry, chain 3 of 4): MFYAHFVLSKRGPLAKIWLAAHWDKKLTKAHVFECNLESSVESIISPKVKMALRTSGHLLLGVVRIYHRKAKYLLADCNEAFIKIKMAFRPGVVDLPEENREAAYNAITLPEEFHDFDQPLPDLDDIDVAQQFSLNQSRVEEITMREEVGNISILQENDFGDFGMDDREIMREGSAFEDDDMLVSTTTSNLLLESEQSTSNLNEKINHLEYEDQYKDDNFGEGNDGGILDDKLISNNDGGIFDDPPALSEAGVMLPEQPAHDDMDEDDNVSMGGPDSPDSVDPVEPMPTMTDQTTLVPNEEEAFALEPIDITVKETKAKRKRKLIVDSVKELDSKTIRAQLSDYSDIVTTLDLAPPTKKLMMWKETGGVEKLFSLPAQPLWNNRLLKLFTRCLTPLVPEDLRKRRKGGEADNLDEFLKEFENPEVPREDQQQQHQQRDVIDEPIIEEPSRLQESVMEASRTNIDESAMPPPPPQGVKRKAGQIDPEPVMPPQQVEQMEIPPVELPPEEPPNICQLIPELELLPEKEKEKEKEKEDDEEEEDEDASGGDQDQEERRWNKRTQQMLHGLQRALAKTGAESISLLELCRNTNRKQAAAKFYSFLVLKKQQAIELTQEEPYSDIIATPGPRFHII
Sequence of cohesin-NIPBL^c subcomplex containing SMC1, SMC3, RAD21 and NIPBL^c (no SA1) (Q6KC79 1163-2804, chain 4 of 4): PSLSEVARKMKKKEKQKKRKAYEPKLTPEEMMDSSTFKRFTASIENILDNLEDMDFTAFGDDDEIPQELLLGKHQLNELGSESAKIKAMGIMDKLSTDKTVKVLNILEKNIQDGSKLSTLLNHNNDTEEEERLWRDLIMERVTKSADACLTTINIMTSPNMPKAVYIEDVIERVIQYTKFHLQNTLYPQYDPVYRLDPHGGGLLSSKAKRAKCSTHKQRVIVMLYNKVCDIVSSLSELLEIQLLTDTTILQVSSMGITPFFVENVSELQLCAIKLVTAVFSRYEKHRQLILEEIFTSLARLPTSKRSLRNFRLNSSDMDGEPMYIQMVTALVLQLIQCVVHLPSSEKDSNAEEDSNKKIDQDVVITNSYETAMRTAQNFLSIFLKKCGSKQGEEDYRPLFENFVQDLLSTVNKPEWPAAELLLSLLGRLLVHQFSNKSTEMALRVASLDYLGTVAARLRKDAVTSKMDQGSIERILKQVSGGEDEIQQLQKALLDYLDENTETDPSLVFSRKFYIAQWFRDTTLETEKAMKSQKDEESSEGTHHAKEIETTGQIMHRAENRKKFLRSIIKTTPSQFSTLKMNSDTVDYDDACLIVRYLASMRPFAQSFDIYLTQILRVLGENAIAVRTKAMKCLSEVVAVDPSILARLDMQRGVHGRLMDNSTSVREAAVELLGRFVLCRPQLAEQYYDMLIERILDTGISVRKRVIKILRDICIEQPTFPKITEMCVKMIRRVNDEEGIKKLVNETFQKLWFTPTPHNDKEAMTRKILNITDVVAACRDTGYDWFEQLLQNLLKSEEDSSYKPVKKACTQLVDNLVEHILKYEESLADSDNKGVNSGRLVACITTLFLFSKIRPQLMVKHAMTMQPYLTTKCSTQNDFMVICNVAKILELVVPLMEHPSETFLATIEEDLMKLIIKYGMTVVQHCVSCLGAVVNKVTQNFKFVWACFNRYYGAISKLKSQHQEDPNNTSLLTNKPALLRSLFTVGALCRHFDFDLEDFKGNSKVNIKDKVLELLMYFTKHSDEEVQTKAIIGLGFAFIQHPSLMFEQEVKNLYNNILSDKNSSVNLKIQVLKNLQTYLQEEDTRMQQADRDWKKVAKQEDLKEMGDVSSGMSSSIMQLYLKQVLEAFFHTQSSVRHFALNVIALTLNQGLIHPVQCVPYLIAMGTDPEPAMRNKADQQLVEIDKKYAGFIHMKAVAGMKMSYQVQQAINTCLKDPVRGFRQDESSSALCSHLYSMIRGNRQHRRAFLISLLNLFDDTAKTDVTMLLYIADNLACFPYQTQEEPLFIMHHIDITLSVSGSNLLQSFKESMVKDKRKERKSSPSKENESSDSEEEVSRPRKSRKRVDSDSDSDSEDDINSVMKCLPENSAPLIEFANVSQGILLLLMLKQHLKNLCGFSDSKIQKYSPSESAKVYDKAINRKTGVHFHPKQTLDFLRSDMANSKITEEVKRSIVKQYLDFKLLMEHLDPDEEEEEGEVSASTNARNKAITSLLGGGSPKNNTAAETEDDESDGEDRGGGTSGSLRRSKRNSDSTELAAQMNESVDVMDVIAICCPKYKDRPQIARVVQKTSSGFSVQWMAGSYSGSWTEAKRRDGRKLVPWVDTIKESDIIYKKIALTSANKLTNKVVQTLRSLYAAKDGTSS

B1: SA1dc (SA1 1-1054 AAs, without its C terminus) (domain or fragment)
chain: MITSELPVLQDSTNETTAHSDAGSELEETEVKGKRKRGRPGRPPSTNKKPRKSPGEKSRIEAGIRGAGRGRANGHPQQNGEGEPVTLFEVVKLGKSAMQSVVDDWIESYKQDRDIALLDLINFFIQCSGCRGTVRIEMFRNMQNAEIIRKMTEEFDEDSGDYPLTMPGPQWKKFRSNFCEFIGVLIRQCQYSIIYDEYMMDTVISLLTGLSDSQVRAFRHTSTLAAMKLMTALVNVALNLSIHQDNTQRQYEAERNKMIGKRANERLELLLQKRKELQENQDEIENMMNSIFKGIFVHRYRDAIAEIRAICIEEIGVWMKMYSDAFLNDSYLKYVGWTLHDRQGEVRLKCLKALQSLYTNRELFPKLELFTNRFKDRIVSMTLDKEYDVAVEAIRLVTLILHGSEEALSNEDCENVYHLVYSAHRPVAVAAGEFLHKKLFSRHDPQAEEALAKRRGRNSPNGNLIRMLVLFFLESELHEHAAYLVDSLWESSQELLKDWECMTELLLEEPVQGEEAMSDRQESALIELMVCTIRQAAEAHPPVGRGTGKRVLTAKERKTQIDDRNKLTEHFIITLPMLLSKYSADAEKVANLLQIPQYFDLEIYSTGRMEKHLDALLKQIKFVVEKHVESDVLEACSKTYSILCSEEYTIQNRVDIARSQLIDEFVDRFNHSVEDLLQEGEEADDDDIYNVLSTLKRLTSFHNAHDLTKWDLFGNCYRLLKTGIEHGAMPEQIVVQALQCSHYSILWQLVKITDGSPSKEDLLVLRKTVKSFLAVCQQCLSNVNTPVKEQAFMLLCDLLMIFSHQLMTGGREGLQPLVFNPDTGLQSELLSFVMDHVFIDQDEENQSMEGDEEDEANKIEALHKRRNLLAAFSKLIIYDIVDMHAAADIFKHYMKYYNDYGDIIKETLSKTRQIDKIQCAKTLILSLQQLFNELVQEQGPNLDRTSAHVSGIKELARRFALTFGLDQIKTREAVATLHKDGIEFAFKYQNQKGQEYPPPNLAFLEVLSEFSSKLLRQDKKTVHSYLEKFLTEQMMERREDVWLPLISYRNSLVT
For B1, the binding result is “binds”.
